Earlier results as cited in publication PMC5536120.

Experiments:
[1] = biological target: knob B peptide GHRP (Homo sapiens) (UniProt P02675)
[2] = biological target: Fibrin central fragment central region (knobs A) (Homo sapiens) (UniProt P02671)

UniProt P02675, sequence (P02675 whole entry, looked up, the tested form may be a part): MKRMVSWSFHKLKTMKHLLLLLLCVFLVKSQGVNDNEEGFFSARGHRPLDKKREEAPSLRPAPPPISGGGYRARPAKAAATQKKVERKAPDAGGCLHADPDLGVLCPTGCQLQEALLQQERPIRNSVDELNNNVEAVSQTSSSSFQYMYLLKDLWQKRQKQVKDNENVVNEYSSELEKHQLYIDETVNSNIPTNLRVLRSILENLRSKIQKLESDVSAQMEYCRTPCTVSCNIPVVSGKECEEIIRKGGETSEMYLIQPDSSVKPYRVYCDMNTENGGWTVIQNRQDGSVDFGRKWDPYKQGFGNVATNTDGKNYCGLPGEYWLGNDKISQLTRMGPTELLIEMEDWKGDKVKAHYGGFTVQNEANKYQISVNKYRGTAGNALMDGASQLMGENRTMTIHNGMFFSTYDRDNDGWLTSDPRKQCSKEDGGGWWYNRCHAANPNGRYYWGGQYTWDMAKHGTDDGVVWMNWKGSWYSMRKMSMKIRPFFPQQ

Fibrinogen (from UniProt P02671)
Kd [1]: 140 µM | Kd [2]: 5.8 µM
